From patent publication US20100129344

T1: IGFBP-2 (human, GroPep), P18065
T1 chain: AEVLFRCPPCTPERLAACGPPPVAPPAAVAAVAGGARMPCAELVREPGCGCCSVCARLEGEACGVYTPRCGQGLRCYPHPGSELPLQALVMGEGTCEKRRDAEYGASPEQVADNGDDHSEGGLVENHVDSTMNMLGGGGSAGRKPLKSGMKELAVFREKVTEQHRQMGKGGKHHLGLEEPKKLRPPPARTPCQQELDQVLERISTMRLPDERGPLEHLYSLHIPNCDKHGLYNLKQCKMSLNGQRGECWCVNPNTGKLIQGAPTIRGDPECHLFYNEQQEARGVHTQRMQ

T2: IGFBP-4 (human, GroPep), P22692
T2 chain: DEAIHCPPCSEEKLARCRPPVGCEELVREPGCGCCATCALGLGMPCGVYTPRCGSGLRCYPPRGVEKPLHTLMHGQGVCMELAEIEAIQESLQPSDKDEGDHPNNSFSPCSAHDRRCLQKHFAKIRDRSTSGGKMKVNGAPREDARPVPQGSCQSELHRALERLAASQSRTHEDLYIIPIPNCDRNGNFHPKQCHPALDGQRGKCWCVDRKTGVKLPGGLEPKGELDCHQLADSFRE

T3: Highly phosphorylated HepG2-purified IGFBP-1, P08833
T3 chain: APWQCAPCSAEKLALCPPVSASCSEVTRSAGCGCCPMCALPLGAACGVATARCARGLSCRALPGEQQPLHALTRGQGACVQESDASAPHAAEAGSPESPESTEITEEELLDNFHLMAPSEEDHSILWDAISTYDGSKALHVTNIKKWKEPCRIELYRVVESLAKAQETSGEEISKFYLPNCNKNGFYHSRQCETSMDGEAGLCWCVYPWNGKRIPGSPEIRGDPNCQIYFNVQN

T4: Recombinant non-phosphorylated IGFBP-1 (human), P08833
T4 chain: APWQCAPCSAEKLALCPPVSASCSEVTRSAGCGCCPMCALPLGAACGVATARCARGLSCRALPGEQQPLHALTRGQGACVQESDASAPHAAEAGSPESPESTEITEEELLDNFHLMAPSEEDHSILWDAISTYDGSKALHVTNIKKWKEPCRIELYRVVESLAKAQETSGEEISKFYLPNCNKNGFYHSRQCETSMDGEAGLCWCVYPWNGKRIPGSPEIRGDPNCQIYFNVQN

T5: Recombinant phosphorylated IGFBP-1 (human), intact, P08833
T5 chain: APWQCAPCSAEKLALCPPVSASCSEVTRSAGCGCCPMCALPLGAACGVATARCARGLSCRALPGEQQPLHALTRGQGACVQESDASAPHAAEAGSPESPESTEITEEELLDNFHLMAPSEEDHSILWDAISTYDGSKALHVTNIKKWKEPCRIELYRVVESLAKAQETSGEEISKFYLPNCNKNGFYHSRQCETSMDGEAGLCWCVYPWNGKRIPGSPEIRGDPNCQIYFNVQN

T6: Dephosphorylated preparation of HepG2-purified IGFBP-1, P08833
T6 chain: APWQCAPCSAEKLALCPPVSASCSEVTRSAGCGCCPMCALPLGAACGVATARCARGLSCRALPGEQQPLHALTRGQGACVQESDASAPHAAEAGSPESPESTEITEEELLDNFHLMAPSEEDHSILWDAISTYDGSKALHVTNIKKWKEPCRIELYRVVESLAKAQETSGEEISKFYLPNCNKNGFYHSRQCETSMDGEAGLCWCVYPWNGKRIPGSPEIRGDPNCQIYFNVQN

T7: IGFBP-6 (human, GroPep), P24592
T7 chain: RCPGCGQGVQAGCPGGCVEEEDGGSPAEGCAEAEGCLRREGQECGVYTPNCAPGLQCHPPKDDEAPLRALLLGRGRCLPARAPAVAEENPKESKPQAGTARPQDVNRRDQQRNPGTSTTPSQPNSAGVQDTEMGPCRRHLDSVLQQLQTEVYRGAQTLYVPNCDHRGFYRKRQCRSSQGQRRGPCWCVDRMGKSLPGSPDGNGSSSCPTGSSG


Tests used:
[1] = molecular target: T1, IGFBP-2 (human, GroPep), P18065
[2] = molecular target: T2, IGFBP-4 (human, GroPep), P22692
[3] = molecular target: T3, Highly phosphorylated HepG2-purified …
[4] = molecular target: T4, Recombinant non-phosphorylated IGFBP-1 …
[5] = molecular target: Glycosylated IGFBP-3 (human, GroPep), P17936
[6] = molecular target: IGFBP-5 (human, Upstate), P24593
[7] = molecular target: T5, Recombinant phosphorylated IGFBP-1 …
[8] = molecular target: T6, Dephosphorylated preparation of …
[9] = molecular target: T7, IGFBP-6 (human, GroPep), P24592

Sequence of Glycosylated IGFBP-3 (human, GroPep), P17936 (P17936 28-291): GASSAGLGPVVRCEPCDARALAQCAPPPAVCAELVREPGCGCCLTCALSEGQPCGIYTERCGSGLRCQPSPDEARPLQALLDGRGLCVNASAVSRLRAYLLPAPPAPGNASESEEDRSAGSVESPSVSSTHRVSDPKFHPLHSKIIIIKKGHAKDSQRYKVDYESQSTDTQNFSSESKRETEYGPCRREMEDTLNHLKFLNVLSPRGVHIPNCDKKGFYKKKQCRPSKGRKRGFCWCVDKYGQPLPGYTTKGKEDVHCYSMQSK
Sequence of IGFBP-5 (human, Upstate), P24593 (P24593 21-272): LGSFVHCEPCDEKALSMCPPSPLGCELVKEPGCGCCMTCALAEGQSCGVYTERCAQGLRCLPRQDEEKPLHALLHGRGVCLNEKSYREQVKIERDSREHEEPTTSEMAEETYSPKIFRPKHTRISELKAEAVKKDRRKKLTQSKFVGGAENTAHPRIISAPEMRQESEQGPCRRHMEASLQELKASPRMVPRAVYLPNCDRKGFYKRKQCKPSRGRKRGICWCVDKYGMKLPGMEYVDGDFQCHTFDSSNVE

Protein | cleavage of IGFBP by urine, 2 h at 37 C, neutral conditions [1] | cleavage of IGFBP by urine, 2 h at 37 C, neutral conditions [2] | cleavage of IGFBP-1 by urine, 2 h at 37 C, neutral conditions (affinity labelling with radioiodinated IGF-I, SDS-PAGE, autoradiography) [3] | cleavage of radioiodinated recombinant npIGFBP-1 by 0.25 µl heparin eluate at pH 2 and 7 (2 h, 37 C; SDS-PAGE, autoradiography) [4] | cleavage of radioiodinated recombinant npIGFBP-1 by 0.25 µl heparin eluate at pH 2 to 8 (2 h, 37 C; SDS-PAGE, autoradiography) [4] | cleavage of radioiodinated recombinant npIGFBP-1 by 0.5 µl urine after preincubation with 2, 5 or 10 ng IGF-I [4] | cleavage of radioiodinated recombinant npIGFBP-1 by 0.5 µl urine after preincubation with 2, 5 or 10 ng IGF-II [4] | cleavage of radioiodinated recombinant npIGFBP-1 by 0.5 µl urine after preincubation with 2, 5 or 10 ng insulin [4] | cleavage of radioiodinated recombinant npIGFBP-1 by 0.5 µl urine alone at pH 7 (2 h, 37 C; SDS-PAGE, autoradiography) [4] | cleavage of radioiodinated recombinant npIGFBP-1 by 0.5 µl urine at pH 2 to 8 (2 h, 37 C; SDS-PAGE, autoradiography); the neutral range is meant [4] | time course of degradation by 0.5 µl urine at 37 C (radioiodinated substrate, SDS-PAGE, autoradiography) [4] | cleavage of IGFBP by urine, 2 h at 37 C, neutral conditions [5] | cleavage of IGFBP by urine, 2 h at 37 C, neutral conditions [6] | proteolysis of IGFBP-1 (SDS-PAGE, silver staining) [7] | time course of degradation by 0.5 µl urine at 37 C (radioiodinated substrate, SDS-PAGE, autoradiography) [7] | cleavage of IGFBP-1 by urine, 2 h at 37 C, neutral conditions (affinity labelling with radioiodinated IGF-I, SDS-PAGE, autoradiography) [8] | cleavage of IGFBP by urine, 2 h at 37 C, neutral conditions [9] | proteolysis of IGFBP-1 [7]
Azurocidin, native, partially purified from human urine by heparin affinity chromatography (protein) IVGGRKARPRQFPFLASIQNQGRHFCGGALIHARFVMTAASCFQSQNPGVSTVVLGAYDLRRRERQSRQTFSISSMSENGYDPQQNLNDLMLLQLDREANLTSSVTILPLPLQNATVEAGTRCQVAGWGSQRSGGRLSRFPRFVNVTVTPEDQCRPNNVCTGVLTRRGGICNGDGGTPLVCEGLAHGVASFSLGPCGRGPDFFTRVALFRDWIDGVLNNPGP | 2 µl had minimal effect on IGFBP-2 | 2 µl had minimal effect on ... not shown here, IGFBP-4 | One µl of urine cleaved more than 50% of each IGFBP-1 isoform | eluate at pH 2: strong 30K band, no fragments; eluate at pH 7: faint 30K band and a strong band at 14.3K | the 30K band is strong at pH 2 and 4, a little weaker at pH 5, thin at pH 6 and absent at pH 7, 7.5 and 8; bands at 14.3K appear at pH 5 and 6 and are strongest at pH 7 and 7.5 | at 2, 5 and 10 ng IGF-I the upper band is kept, weaker than in the untreated lane (*), and the lower band is only faint; no clear change from 2 to 10 ng | at 2, 5 and 10 ng IGF-II the upper band is kept, weaker than in the untreated lane (*), and the lower band is only faint; no clear change from 2 to 10 ng | at all three amounts of insulin the upper band is as faint as with urine alone and the lower band is seen | lane U: the upper band of the untreated lane (*) is nearly gone and a strong lower band appears | the 30K band is strong at pH 6, weaker at pH 5, faint at pH 7 and absent at pH 7.5 and 8; strong fragment bands at 14.3K at pH 7, 7.5 and 8 (at pH 2 and 4 the 30K band is also absent, with only faint signal near 14.3K) | no difference was found in the rate of degradation of each isoform, with fragments visible within 3 min, and substantial degradation by 2 h | 2 µl had minimal effect on ... glycosylated (g) IGFBP-3 | 2 µl had minimal effect on ... IGFBP-5 | Azurocidin-dependent proteolysis of phosphorylated IGFBP-1 was seen within minutes, using a protease:substrate molar ratio of 1:3,500 | no difference was found in the rate of degradation of each isoform, with fragments visible within 3 min, and substantial degradation by 2 h | One µl of urine cleaved more than 50% of each IGFBP-1 isoform | 2 µl had minimal effect on ... not shown here, IGFBP-4 and IGFBP-6 | –
Recombinant azurocidin 27-250, purified from murine myeloma cells (R&D Systems) (protein) IVGGRKARPRQFPFLASIQNQGRHFCGGALIHARFVMTAASCFQSQNPGVSTVVLGAYDLRRRERQSRQTFSISSMSENGYDPQQNLNDLMLLQLDREANLTSSVTILPLPLQNATVEAGTRCQVAGWGSQRSGGRLSRFPRFVNVTVTPEDQCRPNNVCTGVLTRRGGICNGDGGTPLVCEGLAHGVASFSLGPCGRGPDFFTRVALFRDWIDGVLNNPGPGP | – | – | – | – | – | – | – | – | – | – | – | – | – | – | – | – | – | Recombinant human azurocidin^27-250, produced in mouse myeloma cells, had no effect on IGFBP-1 (data not shown)
